Experimental findings from PMC8136776 are described below.

For one data set, the target named is mPOLγA A449T;mPOLγB (Mus musculus;Mus musculus, UniProt P54099;Q9QZM2 26-1218;17-459, A450T|). Briefly: EMSA. A general note: A gel shift assay detects complexes by their altered migration in electrophoresis.
A further data set concerns the target T1, mPOLγA A449T (Mus musculus, UniProt P54099 26-1218, A450T).
T1 sequence: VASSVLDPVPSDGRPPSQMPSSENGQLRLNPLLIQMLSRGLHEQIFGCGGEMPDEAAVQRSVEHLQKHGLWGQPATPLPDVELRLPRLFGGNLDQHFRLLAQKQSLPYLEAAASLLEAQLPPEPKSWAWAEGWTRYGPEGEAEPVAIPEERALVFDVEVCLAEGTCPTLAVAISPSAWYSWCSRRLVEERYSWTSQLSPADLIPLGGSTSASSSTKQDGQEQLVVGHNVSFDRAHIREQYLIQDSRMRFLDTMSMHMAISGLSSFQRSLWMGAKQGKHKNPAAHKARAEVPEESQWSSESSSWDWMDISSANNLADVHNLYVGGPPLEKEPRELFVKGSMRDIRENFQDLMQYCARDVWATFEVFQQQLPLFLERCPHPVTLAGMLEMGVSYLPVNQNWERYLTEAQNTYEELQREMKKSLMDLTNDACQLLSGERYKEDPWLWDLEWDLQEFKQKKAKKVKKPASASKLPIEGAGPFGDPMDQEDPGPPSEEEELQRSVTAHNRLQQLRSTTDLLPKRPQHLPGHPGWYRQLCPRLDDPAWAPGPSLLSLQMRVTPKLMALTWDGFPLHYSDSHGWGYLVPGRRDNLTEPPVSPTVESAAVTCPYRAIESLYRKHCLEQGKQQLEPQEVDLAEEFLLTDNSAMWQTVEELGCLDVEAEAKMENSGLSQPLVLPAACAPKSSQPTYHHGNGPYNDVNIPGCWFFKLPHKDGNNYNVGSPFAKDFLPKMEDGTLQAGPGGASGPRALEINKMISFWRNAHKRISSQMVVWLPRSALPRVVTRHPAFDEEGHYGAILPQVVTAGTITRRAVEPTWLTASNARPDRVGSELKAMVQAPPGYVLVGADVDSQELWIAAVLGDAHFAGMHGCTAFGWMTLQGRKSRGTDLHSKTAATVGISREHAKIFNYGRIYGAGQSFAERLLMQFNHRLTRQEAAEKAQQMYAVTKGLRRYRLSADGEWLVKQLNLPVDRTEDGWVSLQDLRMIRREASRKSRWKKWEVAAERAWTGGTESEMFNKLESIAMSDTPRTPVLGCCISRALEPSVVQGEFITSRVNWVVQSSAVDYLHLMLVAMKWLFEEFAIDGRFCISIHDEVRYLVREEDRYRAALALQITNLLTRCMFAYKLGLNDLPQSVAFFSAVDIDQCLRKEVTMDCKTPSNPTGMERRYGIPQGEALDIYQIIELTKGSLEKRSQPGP
Briefly: EMSA.

Chain of mPOLγA A449T;mPOLγB (Q9QZM2 17-459, stated change not applied, one chain of several): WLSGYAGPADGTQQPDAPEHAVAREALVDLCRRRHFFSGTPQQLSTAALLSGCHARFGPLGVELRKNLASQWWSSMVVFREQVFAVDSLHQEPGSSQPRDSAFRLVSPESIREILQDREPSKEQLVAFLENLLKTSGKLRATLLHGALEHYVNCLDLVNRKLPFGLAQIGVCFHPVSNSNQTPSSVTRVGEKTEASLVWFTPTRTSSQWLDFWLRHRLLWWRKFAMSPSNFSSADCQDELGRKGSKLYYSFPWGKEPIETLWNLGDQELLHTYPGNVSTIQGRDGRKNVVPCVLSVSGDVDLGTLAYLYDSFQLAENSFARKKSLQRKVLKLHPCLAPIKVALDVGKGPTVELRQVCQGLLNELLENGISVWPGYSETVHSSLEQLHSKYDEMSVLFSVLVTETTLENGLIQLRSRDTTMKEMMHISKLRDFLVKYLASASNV

B1: 36/21-nt primer-template (mixed)
DNA 1: TTTTTTTTTTATCCGGGCTCCTCTAGACTCGACCGC
DNA 2: GCGGTCGAGTCTAGAGGAGCC
Regarding B1, the binding signal is 1.75 fold lower binding than WT holoenzyme in the data set with mPOLγA A449T;mPOLγB and ~3.4 fold lower binding than WT in the data set with mPOLγA A449T.
